# Test results taken from patent US20160272693A1 (ZEALAND PHARMA A S, published 2016).
# *1 amine or outer side, *2 acyl side, *3 side chain or, on linkers, in order; H or OH if unused. Bridges are numbered along the chain shown (N, C = ends). [ ]: non-standard residue; d: D form. The star is where a group is joined. C20 diacid = O=C(O)CCCCCCCCCCCCCCCCCCC(=O)*; γGlu = O=C(O)[C@H](CCC(=O)[*:2])N[*:1]; NMeI = CC[C@H](C)[C@H](NC)C(=O)O; Sar = CNCC(=O)O
# T1: human amylin receptor 3 (hAMYR3), hCTR2 co-expressed with human receptor activity modifying protein 3 (hRAMP3) (human, UniProt P30988 25-474; O60896 24-148)
# T1 sequence (looked up) 1: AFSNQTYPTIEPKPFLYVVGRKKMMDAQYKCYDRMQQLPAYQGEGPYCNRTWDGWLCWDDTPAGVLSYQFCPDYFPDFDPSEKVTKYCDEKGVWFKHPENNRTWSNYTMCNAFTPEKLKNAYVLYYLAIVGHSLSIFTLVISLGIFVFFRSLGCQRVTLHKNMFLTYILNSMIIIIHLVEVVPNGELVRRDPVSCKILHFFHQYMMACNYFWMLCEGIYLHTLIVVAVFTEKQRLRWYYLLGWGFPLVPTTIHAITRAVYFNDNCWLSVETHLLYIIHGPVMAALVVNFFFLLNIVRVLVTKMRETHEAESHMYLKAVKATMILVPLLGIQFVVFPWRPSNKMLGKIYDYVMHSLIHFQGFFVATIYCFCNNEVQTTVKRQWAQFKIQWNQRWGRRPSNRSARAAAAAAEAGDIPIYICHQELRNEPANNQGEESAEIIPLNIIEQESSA
# T1 sequence (looked up) 2: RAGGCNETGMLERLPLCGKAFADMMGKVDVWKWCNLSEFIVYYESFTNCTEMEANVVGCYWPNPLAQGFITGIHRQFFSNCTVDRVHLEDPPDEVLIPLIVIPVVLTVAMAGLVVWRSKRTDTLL
# B1: [19CD]-isoGlu-R-C( )-GTAT-C( )-ATERLAHFLERSSF-Gly(Me)-A-Ile(Me)-LSSTEVGSSTP-NH2 (Compd. 36) (peptide)
# peptide: {C20 diacid}-[γGlu]RCGTATCATERLAHFLERSSF[Sar]A[NMeI]LSSTEVGSSTP-NH2
# modifications: disulfide 3-8
# SMILES: CC[C@H](C)[C@@H](C(=O)N[C@@H](CC(C)C)C(=O)N[C@@H](CO)C(=O)N[C@@H](CO)C(=O)N[C@H](C(=O)N[C@@H](CCC(=O)O)C(=O)N[C@H](C(=O)NCC(=O)N[C@@H](CO)C(=O)N[C@@H](CO)C(=O)N[C@H](C(=O)N1CCC[C@H]1C(N)=O)[C@@H](C)O)C(C)C)[C@@H](C)O)N(C)C(=O)[C@H](C)NC(=O)CN(C)C(=O)[C@H](Cc1ccccc1)NC(=O)[C@H](CO)NC(=O)[C@H](CO)NC(=O)[C@H](CCCNC(=N)N)NC(=O)[C@H](CCC(=O)O)NC(=O)[C@H](CC(C)C)NC(=O)[C@H](Cc1ccccc1)NC(=O)[C@H](Cc1c[nH]cn1)NC(=O)[C@H](C)NC(=O)[C@H](CC(C)C)NC(=O)[C@H](CCCNC(=N)N)NC(=O)[C@H](CCC(=O)O)NC(=O)[C@@H](NC(=O)[C@H](C)NC(=O)[C@@H]1CSSC[C@H](NC(=O)[C@H](CCCNC(=N)N)NC(=O)CC[C@H](NC(=O)CCCCCCCCCCCCCCCCCCC(=O)O)C(=O)O)C(=O)NCC(=O)N[C@@H]([C@@H](C)O)C(=O)N[C@@H](C)C(=O)N[C@@H]([C@@H](C)O)C(=O)N1)[C@@H](C)O
# B2: [19CD]-isoGlu-R-C( )-GTAT-C( )-ATERLAHFLNRSSF-Gly(Me)-A-Ile(Me)-LSSTEVGSSTP-NH2 (Compd. 35) (peptide)
# peptide: {C20 diacid}-[γGlu]RCGTATCATERLAHFLNRSSF[Sar]A[NMeI]LSSTEVGSSTP-NH2
# modifications: disulfide 3-8
# SMILES: CC[C@H](C)[C@@H](C(=O)N[C@@H](CC(C)C)C(=O)N[C@@H](CO)C(=O)N[C@@H](CO)C(=O)N[C@H](C(=O)N[C@@H](CCC(=O)O)C(=O)N[C@H](C(=O)NCC(=O)N[C@@H](CO)C(=O)N[C@@H](CO)C(=O)N[C@H](C(=O)N1CCC[C@H]1C(N)=O)[C@@H](C)O)C(C)C)[C@@H](C)O)N(C)C(=O)[C@H](C)NC(=O)CN(C)C(=O)[C@H](Cc1ccccc1)NC(=O)[C@H](CO)NC(=O)[C@H](CO)NC(=O)[C@H](CCCNC(=N)N)NC(=O)[C@H](CC(N)=O)NC(=O)[C@H](CC(C)C)NC(=O)[C@H](Cc1ccccc1)NC(=O)[C@H](Cc1c[nH]cn1)NC(=O)[C@H](C)NC(=O)[C@H](CC(C)C)NC(=O)[C@H](CCCNC(=N)N)NC(=O)[C@H](CCC(=O)O)NC(=O)[C@@H](NC(=O)[C@H](C)NC(=O)[C@@H]1CSSC[C@H](NC(=O)[C@H](CCCNC(=N)N)NC(=O)CC[C@H](NC(=O)CCCCCCCCCCCCCCCCCCC(=O)O)C(=O)O)C(=O)NCC(=O)N[C@@H]([C@@H](C)O)C(=O)N[C@@H](C)C(=O)N[C@@H]([C@@H](C)O)C(=O)N1)[C@@H](C)O
# B3: [19CD]-isoGlu-R-C( )-GTAT-C( )-ATERLAHFLQRSSF-Gly(Me)-A-Ile(Me)-LSSTEVGSSTP-NH2 (Compd. 34) (peptide)
# peptide: {C20 diacid}-[γGlu]RCGTATCATERLAHFLQRSSF[Sar]A[NMeI]LSSTEVGSSTP-NH2
# modifications: disulfide 3-8
# SMILES: CC[C@H](C)[C@@H](C(=O)N[C@@H](CC(C)C)C(=O)N[C@@H](CO)C(=O)N[C@@H](CO)C(=O)N[C@H](C(=O)N[C@@H](CCC(=O)O)C(=O)N[C@H](C(=O)NCC(=O)N[C@@H](CO)C(=O)N[C@@H](CO)C(=O)N[C@H](C(=O)N1CCC[C@H]1C(N)=O)[C@@H](C)O)C(C)C)[C@@H](C)O)N(C)C(=O)[C@H](C)NC(=O)CN(C)C(=O)[C@H](Cc1ccccc1)NC(=O)[C@H](CO)NC(=O)[C@H](CO)NC(=O)[C@H](CCCNC(=N)N)NC(=O)[C@H](CCC(N)=O)NC(=O)[C@H](CC(C)C)NC(=O)[C@H](Cc1ccccc1)NC(=O)[C@H](Cc1c[nH]cn1)NC(=O)[C@H](C)NC(=O)[C@H](CC(C)C)NC(=O)[C@H](CCCNC(=N)N)NC(=O)[C@H](CCC(=O)O)NC(=O)[C@@H](NC(=O)[C@H](C)NC(=O)[C@@H]1CSSC[C@H](NC(=O)[C@H](CCCNC(=N)N)NC(=O)CC[C@H](NC(=O)CCCCCCCCCCCCCCCCCCC(=O)O)C(=O)O)C(=O)NCC(=O)N[C@@H]([C@@H](C)O)C(=O)N[C@@H](C)C(=O)N[C@@H]([C@@H](C)O)C(=O)N1)[C@@H](C)O
# Molecular target: T1, human amylin receptor 3 (hAMYR3), hCTR2 …
# Test: cell-based or functional assay
row,Binder,hAMYR3 EC50 (nM); cAMP induction
1,B1,0.36 nM
2,B2,0.11 nM
3,B3,0.12 nM
